Assay results as given in paper PMC3763527.
Blank lines part the entries; values can stand above or below the substance they belong to.

What was measured:
Experiment in all cases: optical tweezers force spectroscopy; single-chain clamp held by two 777-bp DNA handles between streptavidin on a biotinylated quartz slide and an anti-digoxigenin-coated 2 µm bead in the laser trap; stage moved at 100 nm/s; trap stiffness 0.15 pN/nm; buffer B (100 mM sodium phosphate, 150 mM sodium chloride, pH 7.2); rupture of the one subunit-subunit interface that can open within the chain
[1] = target: single-chain E. coli β-clamp with cysteines at E64 (first subunit) and E314 (second subunit) (E. coli)
[2] = target: single-chain E. coli β-clamp with cysteines at G102 (first subunit) and E298 (second subunit) (E. coli)
[3] = target: single-chain S. cerevisiae PCNA with cysteines at D122 (first subunit) and D223 (third subunit) (S. cerevisiae)
[4] = target: single-chain S. cerevisiae PCNA with cysteines at K107 (first subunit) and F185 (third subunit) (S. cerevisiae)

- rupture force of the subunit interface [1]: 5.8 pN
Substance: single-chain E. coli β-clamp with cysteines at E64 (first subunit) and E314 (second subunit)

- rupture force of the subunit interface [2]: 12 pN
Substance: single-chain E. coli β-clamp with cysteines at G102 (first subunit) and E298 (second subunit)

- rupture force of the subunit interface [3]: 11 pN
Substance: single-chain S. cerevisiae PCNA with cysteines at D122 (first subunit) and D223 (third subunit)

- rupture force of the subunit interface [4]: 1.7 pN
Substance: single-chain S. cerevisiae PCNA with cysteines at K107 (first subunit) and F185 (third subunit)
